Data published in IntAct's records for PubMed 18287031.

B1: Connector enhancer of kinase suppressor of ras 2 (Homo sapiens), Q8WXI2 (parent)
chain: MALIMEPVSKWSPSQVVDWMKGLDDCLQQYIKNFEREKISGDQLLRITHQELEDLGVSRIGHQELILEAVDLLCALNYGLETENLKTLSHKLNASAKNLQNFITGRRRSGHYDGRTSRKLPNDFLTSVVDLIGAAKSLLAWLDRSPFAAVTDYSVTRNNVIQLCLELTTIVQQDCTVYETENKILHVCKTLSGVCDHIISLSSDPLVSQSAHLEVIQLANIKPSEGLGMYIKSTYDGLHVITGTTENSPADRCKKIHAGDEVIQVNHQTVVGWQLKNLVNALREDPSGVILTLKKRPQSMLTSAPALLKNMRWKPLALQPLIPRSPTSSVATPSSTISTPTKRDSSALQDLYIPPPPAEPYIPRDEKGNLPCEDLRGHMVGKPVHKGSESPNSFLDQEYRKRFNIVEEDTVLYCYEYEKGRSSSQGRRESTPTYGKLRPISMPVEYNWVGDYEDPNKMKRDSRRENSLLRYMSNEKIAQEEYMFQRNSKKDTGKKSKKKGDKSNSPTHYSLLPSLQMDALRQDIMGTPVPETTLYHTFQQSSLQHKSKKKNKGPIAGKSKRRISCKDLGRGDCEGWLWKKKDAKSYFSQKWKKYWFVLKDASLYWYINEEDEKAEGFISLPEFKIDRASECRKKYAFKACHPKIKSFYFAAEHLDDMNRWLNRINMLTAGYAERERIKQEQDYWSESDKEEADTPSTPKQDSPPPPYDTYPRPPSMSCASPYVEAKHSRLSSTETSQSQSSHEEFRQEVTGSSAVSPIRKTASQRRSWQDLIETPLTSSGLHYLQTLPLEDSVFSDSAAISPEHRRQSTLPTQKCHLQDHYGPYPLAESERMQVLNGNGGKPRSFTLPRDSGFNHCCLNAPVSACDPQDDVQPPEVEEEEEEEEEEGEAAGENIGEKSESREEKLGDSLQDLYRALEQASLSPLGEHRISTKMEYKLSFIKRCNDPVMNEKLHRLRILKSTLKAREGEVAIIDKVLDNPDLTSKEFQQWKQMYLDLFLDICQNTTSNDPLSISSEVDVITSSLAHTHSYIETHV
partner: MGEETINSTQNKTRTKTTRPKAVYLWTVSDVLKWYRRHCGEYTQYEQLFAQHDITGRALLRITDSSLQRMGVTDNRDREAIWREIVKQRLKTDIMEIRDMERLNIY
B2: Protein aveugle (Drosophila melanogaster (Fruit fly)), Q8ML92 (parent)
chain: B1 partner

Variants of: B1
Settings: with ave_drome ave, Q8ML92

effect of a mutation on the interaction	Variant
disrupting interaction	E68R;D71R
decreasing interaction	D71R
decreasing interaction	I60A

Variants of: B2
Settings: with cnkr2_human CNKSR2, Q8WXI2

effect of a mutation on the interaction	Variant
decreasing interaction	R61E
decreasing interaction	R57A;R61A
disrupting interaction	R57E;R61E
